The values that follow are results of earlier work, collected in patent publication US6552168B1, “Gamma-ketoacid tetrapeptides as inhibitors of caspase-3” (Merck Frosst Canada & Co., priority 1998, dated 2003).

One series has as its target T1, caspase-1 (Homo sapiens, UniProt P29466).
T1 sequence (P29466 120-297 limits assumed): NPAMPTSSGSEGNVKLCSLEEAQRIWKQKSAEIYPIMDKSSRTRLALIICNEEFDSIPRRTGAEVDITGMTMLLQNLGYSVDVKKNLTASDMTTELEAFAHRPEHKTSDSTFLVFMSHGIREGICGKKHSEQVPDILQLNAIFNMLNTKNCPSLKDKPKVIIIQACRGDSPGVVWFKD
T1 sequence (P29466 317-404 limits assumed): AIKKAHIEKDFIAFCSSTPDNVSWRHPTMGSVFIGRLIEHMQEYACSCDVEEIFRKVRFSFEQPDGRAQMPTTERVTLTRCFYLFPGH

The target of the next series is T2, caspase-3 (Homo sapiens, UniProt P42574).
T2 sequence (P42574 29-175 limits assumed): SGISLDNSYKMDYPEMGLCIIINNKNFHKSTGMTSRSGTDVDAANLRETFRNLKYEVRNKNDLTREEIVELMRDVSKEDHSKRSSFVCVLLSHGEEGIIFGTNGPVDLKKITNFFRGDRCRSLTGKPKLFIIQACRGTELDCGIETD
T2 sequence (P42574 176-277 limits assumed): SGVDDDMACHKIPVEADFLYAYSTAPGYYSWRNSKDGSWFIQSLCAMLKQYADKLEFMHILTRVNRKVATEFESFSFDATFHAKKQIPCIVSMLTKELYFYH

What is called Ki is a dissociation constant, usually derived from enzyme kinetics or from competition with a known ligand. Turning to Ac-YVAD-CHO, the figures for the Ki with caspase-1 and with caspase-3 were less than 0.001 µM and 12 µM, respectively. For the same substance, the “kon caspase-1” value with caspase-1 (slow-binding time-dependent inhibition) is 380000 M⁻¹ s⁻¹.
